The text below walks through data of patent publication US20240360436A1.

T1: TIGIT antigen (UniProt Q495A1)
T1 sequence (looked up): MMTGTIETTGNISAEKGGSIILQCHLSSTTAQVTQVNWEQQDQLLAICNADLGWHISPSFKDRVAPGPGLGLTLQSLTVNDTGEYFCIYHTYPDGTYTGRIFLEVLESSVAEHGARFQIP

B1: TT321 (Fab, part only; not given: Tiragolumab light chain, V domains shown, part only)
VH: EVQLVESGGGLVQPGGSLRLSCAASGFTFNMYAMSWVRQGPGKGLEWVSTISGGAGSTYYADSVKGRFTISRDNSKNTVYLQMNSLRAEDTAVYYCASEVVAATTLDYWGQGTTVTVSS
B2: TT385 (Fab, part only; not given: Tiragolumab light chain, V domains shown, part only)
VH: EVQLVESGPEVKKPGTSVKVSCKASGLTFSRSAVQWLRQARGQRLEWIGWVDVASSNTNYAQKFQERVTITRDMSTSTAYMELSNLRTEDTAVYYCAADLYGFWGVQGFDPWGQGTMVTVSS
B3: TT357 (Fab, part only; not given: Tiragolumab light chain, V domains shown, part only)
VH: QVQLVQSGGGLVQPGGSLRLSCAASGFTFSRYWMTWVRQAPGKGLEWVANTNQDGSETYYVDSVKGRFTISRDNAKNSLYLQMNSLRAEDTAVYYCARRWSGYHDGSGYDYFDYWDQGTLVTVSS

This test deals with T1, TIGIT antigen. The test can be described thus: ELISA on TIGIT antigen, OD405. On the technique in general: An ELISA detects its analyte on a solid surface through an enzyme-linked reagent.
Molecule B1 came in with an ELISA OD405 Reading of 0.547 OD405.

B2: the ELISA OD405 Reading was 0.474 OD405.

As to B3, the ELISA OD405 Reading was 0.471 OD405.
